Results: patent publication US20060263802A1 (CRUCELL HOLLAND B V, published 2006)

What was measured:
Assay in all cases: PEPSCAN ELISA, looped peptide, 10 ug/ml
[1] = biological target: looped/cyclic peptide … (rabies virus strain ERA)
[2] = biological target: looped/cyclic peptide … (rabies virus strain ERA); remark: listed apart in the source
[3] = biological target: looped/cyclic peptide … (rabies virus strain ERA); remark: listed apart in the source
[4] = biological target: looped/cyclic peptide … (rabies virus strain ERA); remark: listed apart in the source
[5] = biological target: looped/cyclic peptide … (rabies virus strain ERA); remark: listed apart in the source
[6] = biological target: looped/cyclic peptide … (rabies virus strain ERA); remark: listed apart in the source
[7] = biological target: looped/cyclic peptide … (rabies virus strain ERA); remark: listed apart in the source
[8] = biological target: looped/cyclic peptide … (rabies virus strain ERA); remark: listed apart in the source
[9] = biological target: looped/cyclic peptide … (rabies virus strain ERA); remark: listed apart in the source
[10] = biological target: looped/cyclic peptide … (rabies virus strain ERA); remark: listed apart in the source
[11] = biological target: looped/cyclic peptide … (rabies virus strain ERA); remark: listed apart in the source
[12] = biological target: looped/cyclic peptide … (rabies virus strain ERA); remark: listed apart in the source
[13] = biological target: looped/cyclic peptide … (rabies virus strain ERA); remark: listed apart in the source
[14] = biological target: looped/cyclic peptide … (rabies virus strain ERA); remark: listed apart in the source
[15] = biological target: looped/cyclic peptide … (rabies virus strain ERA); remark: listed apart in the source
[16] = biological target: looped/cyclic peptide … (rabies virus strain ERA); remark: listed apart in the source
[17] = biological target: looped/cyclic peptide … (rabies virus strain ERA); remark: listed apart in the source
[18] = biological target: looped/cyclic peptide … (rabies virus strain ERA); remark: listed apart in the source
[19] = biological target: looped/cyclic peptide … (rabies virus strain ERA); remark: listed apart in the source
[20] = biological target: looped/cyclic peptide … (rabies virus strain ERA); remark: listed apart in the source
[21] = biological target: looped/cyclic peptide … (rabies virus strain ERA); remark: listed apart in the source
[22] = biological target: looped/cyclic peptide … (rabies virus strain ERA); remark: listed apart in the source
[23] = biological target: looped/cyclic peptide … (rabies virus strain ERA); remark: listed apart in the source
[24] = biological target: looped/cyclic peptide … (rabies virus strain ERA); remark: listed apart in the source
[25] = biological target: looped/cyclic peptide … (rabies virus strain ERA); remark: listed apart in the source
[26] = biological target: looped/cyclic peptide … (rabies virus strain ERA); remark: listed apart in the source
[27] = biological target: looped/cyclic peptide … (rabies virus strain ERA); remark: listed apart in the source
[28] = biological target: looped/cyclic peptide … (rabies virus strain ERA); remark: listed apart in the source
[29] = biological target: looped/cyclic peptide … (rabies virus strain ERA); remark: listed apart in the source
[30] = biological target: looped/cyclic peptide … (rabies virus strain ERA); remark: listed apart in the source
[31] = biological target: looped/cyclic peptide … (rabies virus strain ERA); remark: listed apart in the source
[32] = biological target: looped/cyclic peptide … (rabies virus strain ERA); remark: listed apart in the source
[33] = biological target: looped/cyclic peptide … (rabies virus strain ERA); remark: listed apart in the source
[34] = biological target: looped/cyclic peptide … (rabies virus strain ERA); remark: listed apart in the source
[35] = biological target: looped/cyclic peptide … (rabies virus strain ERA); remark: listed apart in the source
[36] = biological target: looped/cyclic peptide … (rabies virus strain ERA); remark: listed apart in the source
[37] = biological target: looped/cyclic peptide … (rabies virus strain ERA); remark: listed apart in the source
[38] = biological target: looped/cyclic peptide … (rabies virus strain ERA); remark: listed apart in the source
[39] = biological target: looped/cyclic peptide … (rabies virus strain ERA); remark: listed apart in the source
[40] = biological target: looped/cyclic peptide … (rabies virus strain ERA); remark: listed apart in the source
[41] = biological target: looped/cyclic peptide … (rabies virus strain ERA); remark: listed apart in the source
[42] = biological target: looped/cyclic peptide … (rabies virus strain ERA); remark: listed apart in the source
[43] = biological target: looped/cyclic peptide … (rabies virus strain ERA); remark: listed apart in the source
[44] = biological target: looped/cyclic peptide … (rabies virus strain ERA); remark: listed apart in the source
[45] = biological target: looped/cyclic peptide … (rabies virus strain ERA); remark: listed apart in the source
[46] = biological target: looped/cyclic peptide … (rabies virus strain ERA); remark: listed apart in the source
[47] = biological target: looped/cyclic peptide … (rabies virus strain ERA); remark: listed apart in the source
[48] = biological target: looped/cyclic peptide … (rabies virus strain ERA); remark: listed apart in the source
[49] = biological target: looped/cyclic peptide … (rabies virus strain ERA); remark: listed apart in the source
[50] = biological target: looped/cyclic peptide … (rabies virus strain ERA); remark: listed apart in the source
[51] = biological target: looped/cyclic peptide … (rabies virus strain ERA); remark: listed apart in the source
[52] = biological target: looped/cyclic peptide … (rabies virus strain ERA); remark: listed apart in the source
[53] = biological target: looped/cyclic peptide … (rabies virus strain ERA); remark: listed apart in the source
[54] = biological target: looped/cyclic peptide … (rabies virus strain ERA); remark: listed apart in the source
[55] = biological target: looped/cyclic peptide … (rabies virus strain ERA); remark: listed apart in the source
[56] = biological target: looped/cyclic peptide … (rabies virus strain ERA); remark: listed apart in the source
[57] = biological target: looped/cyclic peptide … (rabies virus strain ERA); remark: listed apart in the source
[58] = biological target: looped/cyclic peptide … (rabies virus strain ERA); remark: listed apart in the source
[59] = biological target: looped/cyclic peptide … (rabies virus strain ERA); remark: listed apart in the source
[60] = biological target: looped/cyclic peptide … (rabies virus strain ERA); remark: listed apart in the source
[61] = biological target: looped/cyclic peptide … (rabies virus strain ERA); remark: listed apart in the source
[62] = biological target: looped/cyclic peptide … (rabies virus strain ERA); remark: listed apart in the source
[63] = biological target: looped/cyclic peptide … (rabies virus strain ERA); remark: listed apart in the source
[64] = biological target: looped/cyclic peptide … (rabies virus strain ERA); remark: listed apart in the source
[65] = biological target: looped/cyclic peptide … (rabies virus strain ERA); remark: listed apart in the source
[66] = biological target: looped/cyclic peptide … (rabies virus strain ERA); remark: listed apart in the source
[67] = biological target: looped/cyclic peptide … (rabies virus strain ERA); remark: listed apart in the source
[68] = biological target: looped/cyclic peptide … (rabies virus strain ERA); remark: listed apart in the source
[69] = biological target: looped/cyclic peptide … (rabies virus strain ERA); remark: listed apart in the source
[70] = biological target: looped/cyclic peptide … (rabies virus strain ERA); remark: listed apart in the source
[71] = biological target: looped/cyclic peptide … (rabies virus strain ERA); remark: listed apart in the source
[72] = biological target: looped/cyclic peptide … (rabies virus strain ERA); remark: listed apart in the source
[73] = biological target: looped/cyclic peptide … (rabies virus strain ERA); remark: listed apart in the source
[74] = biological target: looped/cyclic peptide … (rabies virus strain ERA); remark: listed apart in the source
[75] = biological target: looped/cyclic peptide … (rabies virus strain ERA); remark: listed apart in the source
[76] = biological target: looped/cyclic peptide … (rabies virus strain ERA); remark: listed apart in the source
[77] = biological target: looped/cyclic peptide … (rabies virus strain ERA); remark: listed apart in the source
[78] = biological target: looped/cyclic peptide … (rabies virus strain ERA); remark: listed apart in the source
[79] = biological target: looped/cyclic peptide … (rabies virus strain ERA); remark: listed apart in the source
[80] = biological target: looped/cyclic peptide … (rabies virus strain ERA); remark: listed apart in the source
[81] = biological target: looped/cyclic peptide … (rabies virus strain ERA); remark: listed apart in the source
[82] = biological target: looped/cyclic peptide … (rabies virus strain ERA); remark: listed apart in the source
[83] = biological target: looped/cyclic peptide … (rabies virus strain ERA); remark: listed apart in the source
[84] = biological target: looped/cyclic peptide … (rabies virus strain ERA); remark: listed apart in the source
[85] = biological target: looped/cyclic peptide … (rabies virus strain ERA); remark: listed apart in the source
[86] = biological target: looped/cyclic peptide … (rabies virus strain ERA); remark: listed apart in the source
[87] = biological target: looped/cyclic peptide … (rabies virus strain ERA); remark: listed apart in the source
[88] = biological target: looped/cyclic peptide … (rabies virus strain ERA); remark: listed apart in the source
[89] = biological target: looped/cyclic peptide … (rabies virus strain ERA); remark: listed apart in the source
[90] = biological target: looped/cyclic peptide … (rabies virus strain ERA); remark: listed apart in the source
[91] = biological target: looped/cyclic peptide … (rabies virus strain ERA); remark: listed apart in the source

B1: human monoclonal antibody CRJA (antibody, V domains shown)
VH: EVQLLESGGGLVQPGGSLRLSCAASGFTFSNYAMSWVRQAPGKGLEWVSAISASGHSTYLADSVKGRFTISRDNSKNTLYLQMNSLRAEDTAVYYCAKDREVTMIVVLNGGFDYWGQGTRVTVSS
VL: EIVLTQSPATLSLSPGERATLACRASQTASRYLAWYQQKPGQAPRLLIYDTSNRATGIPARFSGSGSGTDFTLSISSLEPEDFAVYYCQQRFNWPWTFGQGTKVEFK
OD [1]: 73 OD
OD [2]: 104 OD
OD [3]: 108 OD
OD [4]: 87 OD
OD [5]: 132 OD
OD [6]: 104 OD
OD [7]: 104 OD
OD [8]: 78 OD
OD [9]: 115 OD
OD [10]: 78 OD
OD [11]: 105 OD
OD [12]: 71 OD
OD [13]: 87 OD
OD [14]: 92 OD
OD [15]: 83 OD
OD [16]: 68 OD
OD [17]: 110 OD
OD [18]: 58 OD
OD [19]: 110 OD
OD [20]: 114 OD
OD [21]: 89 OD
OD [22]: 82 OD
OD [23]: 44 OD
OD [24]: 127 OD
OD [25]: 105 OD
OD [26]: 92 OD
OD [27]: 46 OD
OD [28]: 94 OD
OD [29]: 100 OD
OD [30]: 71 OD
OD [31]: 94 OD
OD [32]: 98 OD
OD [33]: 114 OD
OD [34]: 110 OD
OD [35]: 104 OD
OD [36]: 55 OD
OD [37]: 108 OD
OD [38]: 104 OD
OD [39]: 112 OD
OD [40]: 120 OD
OD [41]: 105 OD
OD [42]: 108 OD
OD [43]: 88 OD
OD [44]: 52 OD
OD [45]: 84 OD
OD [46]: 68 OD
OD [47]: 96 OD
OD [48]: 100 OD
OD [49]: 96 OD
OD [50]: 98 OD
OD [51]: 98 OD
OD [52]: 86 OD
OD [53]: 79 OD
OD [54]: 100 OD
OD [55]: 87 OD
OD [56]: 43 OD
OD [57]: 165 OD
OD [58]: 113 OD
OD [59]: 92 OD
OD [60]: 100 OD
OD [61]: 92 OD
OD [62]: 117 OD
OD [63]: 103 OD
OD [64]: 54 OD
OD [65]: 78 OD
OD [66]: 90 OD
OD [67]: 104 OD
OD [68]: 105 OD
OD [69]: 165 OD
OD [70]: 98 OD
OD [71]: 113 OD
OD [72]: 96 OD
OD [73]: 103 OD
OD [74]: 104 OD
OD [75]: 112 OD
OD [76]: 90 OD
OD [77]: 90 OD
OD [78]: 120 OD
OD [79]: 42 OD
OD [80]: 98 OD
OD [81]: 110 OD
OD [82]: 75 OD
OD [83]: 71 OD
OD [84]: 115 OD
OD [85]: 160 OD
OD [86]: 93 OD
OD [87]: 45 OD
OD [88]: 71 OD
OD [89]: 94 OD
OD [90]: 105 OD
OD [91]: 96 OD
